Assay results published in US20240279281A1, “Peptide Inhibitors of Interleukin-23 Receptor” (Janssen Pharmaceutica NV, priority 2023, published 2024).
Starred links: 1 amine or outer side, 2 acyl side, 3 side chain; linkers in the order of their positions; H or OH if unused. Positions of bridges follow the written chain, without caps; N, C: chain ends. Non-standard residues stand in square brackets, D forms with d. No end group written: not given here. X1 = 3‑(7-(3-acetamidophenyl)-1H-indol-3-yl)‑2‑aminopropanoic acid, CC(=O)Nc1cccc(-c2cccc3c(CC(N[*:1])C(=O)[*:2])c[nH]c23)c1; AEF(G) = 2-amino-3-(4-(2-guanidinoethoxy)phenyl)propanoic acid, N=C(N)NCCOc1ccc(C[C@H](N[*:1])C(=O)[*:2])cc1; X10 = 2‑amino‑3‑(4-(2-guanidinoethoxy)phenyl)propanoic acid, N=C(N)NCCOc1ccc(CC(N[*:1])C(=O)[*:2])cc1; Trp(7-(3-AcNH-Ph)) = CC(=O)Nc1cccc(-c2cccc3c(C[C@H](N)C(=O)O)c[nH]c23)c1; N‑methyl‑N‑acetyllysine = N-methyl-N-acetyllysine; Phe(4-OMe) = COc1ccc(C[C@H](N[*:1])C(=O)[*:2])cc1; Trp(7-Br) = N[C@@H](Cc1c[nH]c2c(Br)cccc12)C(=O)O; 2Nal(6-OH) = N[C@@H](Cc1ccc2cc(O)ccc2c1)C(=O)O; Trp(7-Me) = Cc1cccc2c(C[C@H](N)C(=O)O)c[nH]c12; dLys(Me3) = C[N+](C)(C)CCCC[C@@H](N)C(=O)O; AEF = NCCOc1ccc(C[C@H](N)C(=O)O)cc1; 3Pal = N[C@@H](Cc1cccnc1)C(=O)O; Aad = N[C@@H](CCCC(=O)O)C(=O)O; NMeK = CN[C@@H](CCCCN)C(=O)O; Pen = CC(C)(S)[C@H](N)C(=O)O; αMeK = C[C@](N)(CCCCN)C(=O)O; αMeC = C[C@](N)(CS)C(=O)O; lipid = not defined here; Thp = NC1(C(=O)O)CCOCC1; PEG = not defined here; Sar = CNCC(=O)O

Target: T1, interleukin-23 receptor (IL-23R), Q5VWK5
T1 chain: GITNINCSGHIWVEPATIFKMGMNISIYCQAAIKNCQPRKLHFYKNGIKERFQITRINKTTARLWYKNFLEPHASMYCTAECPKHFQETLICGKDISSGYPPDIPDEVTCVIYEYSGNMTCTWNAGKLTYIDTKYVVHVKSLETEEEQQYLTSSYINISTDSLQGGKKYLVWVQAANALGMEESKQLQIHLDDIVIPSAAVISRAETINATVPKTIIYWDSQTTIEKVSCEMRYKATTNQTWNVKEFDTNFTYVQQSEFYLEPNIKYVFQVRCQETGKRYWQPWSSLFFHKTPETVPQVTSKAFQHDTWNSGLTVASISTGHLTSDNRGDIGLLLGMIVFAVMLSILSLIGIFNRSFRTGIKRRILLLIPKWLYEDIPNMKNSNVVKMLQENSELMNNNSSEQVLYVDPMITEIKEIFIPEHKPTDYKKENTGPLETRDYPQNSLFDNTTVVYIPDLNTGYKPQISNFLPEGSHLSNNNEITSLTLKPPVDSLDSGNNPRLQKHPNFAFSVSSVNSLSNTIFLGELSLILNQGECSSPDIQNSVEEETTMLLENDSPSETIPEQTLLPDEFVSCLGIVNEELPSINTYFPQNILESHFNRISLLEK
Assay: cell-based or functional assay

Binder | IL23R Reporter Assay IC50 [nM] | PBMC pSTAT3 IC50 [nM]
[Pen]NT[Trp(7-Me)]K(Ac)[Pen][Phe(4-OMe)][2Nal(6-OH)][αMeK]LN[3Pal][Sar] (not fully specified (bridges); ends and bridges not checked) [SEQ ID NO: 306] | < 10 | –
[Pen]ET[Trp(7-Me)]K(PEG)[Pen][AEF][2Nal(6-OH)][Thp]EN[3Pal][Sar] (not fully specified (bridges); ends and bridges not checked; also: PEG chain on Lys unspecified) [SEQ ID NO: 326] | < 10 | –
R[Pen]NT[X1]K(Ac)[Pen][X10][2‑amino‑3‑(6-hydroxynaphthalen-2-yl)propanoic acid][Thp]EN[3Pal][Sar] (ends and bridges not checked) [SEQ ID NO: 35] | < 10 | < 0.1
K[Pen]NT[Trp(7-Me)]K[Pen][AEF][2Nal(6-OH)][Thp][Aad]N[3Pal][Sar] (not fully specified (residue 6, bridges); ends and bridges not checked) [SEQ ID NO: 348] | < 10 | –
[Pen]NT[2‑amino‑3‑(benzo(b)thiophen-3-yl)propanoic acid]K(Ac)[Pen][AEF][2Nal(6-OH)][Thp]EN[3Pal][Sar] (not fully specified (bridges); ends and bridges not checked) [SEQ ID NO: 334] | < 10 | –
R[Pen]NT[Trp(7-Me)]K(Ac)[Pen][AEF][2Nal(6-OH)][Thp]EN[3Pal][NMeK](lipid) (disulfide 2-7 (inferred); not fully specified; ends not checked) [SEQ ID NO: 279] | > 100 | < 1
[Pen]LT[Trp(7-Me)]K(Ac)[Pen]F[2Nal(6-OH)][αMeK]LN[3Pal][Sar] (disulfide 1-6 (inferred); ends not checked) [SEQ ID NO: 304] | < 10 | –
[(R)‑3‑carboxy‑2‑(4-(((R)-5-carboxy-5-hydrazineylpentyl)amino)-4-oxobutanamido)‑N,N,N‑trimethylpropan‑1‑aminium][Pen]NT[Trp(7-Me)]K(Ac)[Pen][AEF][2Nal(6-OH)][Thp]EN[3Pal][Sar] (not fully specified (bridges); ends and bridges not checked) [SEQ ID NO: 340] | < 10 | < 0.01
[Pen]ET[Trp(7-Me)]K(Ac)[Pen][AEF][2Nal(6-OH)][Thp]EN[3Pal][Sar] (not fully specified (bridges); ends and bridges not checked) [SEQ ID NO: 331] | < 10 | –
[Pen]NT[Trp(7-Me)]K(Ac)[Pen][2‑amino‑3‑(4-(2-aminoethoxy)phenyl)propanoic acid][2‑amino‑3‑(6-hydroxynaphthalen-2-yl)propanoic acid][Thp]K(Ac)N[3Pal][Sar]K(lipid) (disulfide 1-6 (inferred); ends not checked; also: K14: lipidated lysine) [SEQ ID NO: 275] | > 100 | < 1
[Pen]NT[Trp(7-Me)]K(Ac)[Pen][Phe(4-OMe)][2Nal(6-OH)][αMeK]LN[3Pal][Sar] (not fully specified (bridges); ends and bridges not checked) [SEQ ID NO: 308] | < 10 | –
[Pen]NT[Trp(7-Me)]K(Ac)[Pen][2‑amino‑3‑(4-(2-aminoethoxy)phenyl)propanoic acid][2‑amino‑3‑(6-hydroxynaphthalen-2-yl)propanoic acid][Thp]K(Ac)N[3Pal][Sar]K(lipid) (disulfide 1-6 (inferred); ends not checked; also: K14: lipidated lysine) [SEQ ID NO: 278] | > 100 | < 1
[Pen]NT[Trp(7-Me)]K(Ac)[Pen][AEF][2Nal(6-OH)][Thp]EN[3Pal][Sar] (not fully specified (bridges); ends and bridges not checked) [SEQ ID NO: 347] | < 10 | < 0.1
[dLys(Me3)][Pen]NT[Trp(7-(3-AcNH-Ph))]K(Ac)[Pen][AEF(G)][2Nal(6-OH)][Thp]EN[3Pal][Sar] (ends and bridges not checked) [SEQ ID NO: 33] | < 10 | < 0.01
[N‑amino‑O‑(2-(2-(methylamino)ethoxy)ethyl)‑D‑serine][Pen]NT[Trp(7-Me)][N‑methyl‑N‑acetyllysine][Pen][AEF][2Nal(6-OH)][Thp]DN[3Pal][Sar] (disulfide 2-7 (inferred); ends not checked) [SEQ ID NO: 290] | < 10 | < 0.1
R[Pen]NT[Trp(7-Br)]K(Ac)[Pen][AEF][2Nal(6-OH)][Thp]EN[3Pal][Sar] (not fully specified (bridges); ends and bridges not checked) [SEQ ID NO: 312] | < 10 | –
[dLys(Me3)][Pen]NT[X1]K(Ac)[Pen][5‑(4-(2-amino-2-carboxyethyl)phenoxy)‑N,N,N‑trimethylpentan‑1‑aminium][2‑amino‑3‑(6-hydroxynaphthalen-2-yl)propanoic acid][Thp]EN[3Pal][Sar] (ends and bridges not checked) [SEQ ID NO: 37] | < 10 | –
[Pen]K(lipid)T[Trp(7-Me)]K(Ac)[Pen][2‑amino‑3‑(4-(2-aminoethoxy)phenyl)propanoic acid][2‑amino‑3‑(6-hydroxynaphthalen-2-yl)propanoic acid][Thp]EN[3Pal][Sar] (disulfide 1-6 (inferred); ends not checked; also: K2: lipidated lysine) [SEQ ID NO: 276] | > 100 | < 1
[Pen]LT[Trp(7-Me)]K(lipid)[Pen]F[2Nal(6-OH)][αMeK]LN[3Pal][Sar] (disulfide 1-6 (inferred); ends not checked; also: Lys5 lipidated, lipid not given here) [SEQ ID NO: 303] | < 10 | –
RCNT[Trp(7-Me)]K(Ac)[αMeC][AEF][2Nal(6-OH)][Thp]EN[3Pal][Sar] (ends and bridges not checked) [SEQ ID NO: 4] | < 10 | –
[Pen]NT[Trp(7-Me)]K(lipid)[Pen]F[2Nal(6-OH)][αMeK]LN[3Pal][Sar] (not fully specified (bridges); ends and bridges not checked; also: lipid group unspecified) [SEQ ID NO: 305] | < 10 | –
R[Pen]NT[X1]K(Ac)[Pen][5‑(4-(2-amino-2-carboxyethyl)phenoxy)‑N,N,N‑trimethylpentan‑1‑aminium][2‑amino‑3‑(6-hydroxynaphthalen-2-yl)propanoic acid][Thp]EN[3Pal][Sar] (not fully specified (bridges); ends and bridges not checked) [SEQ ID NO: 39] | < 10 | –
[Pen]NT[Trp(7-Br)]K(Ac)[Pen][AEF][2Nal(6-OH)][Thp]EN[3Pal][Sar] (not fully specified (bridges); ends and bridges not checked) [SEQ ID NO: 313] | < 10 | –
[Pen]NT[Trp(7-Me)]K(lipid)[Pen][Phe(4-OMe)][2Nal(6-OH)][αMeK]LN[3Pal][Sar] (not fully specified (bridges); ends and bridges not checked; also: lipid group unspecified) [SEQ ID NO: 307] | < 10 | –
CNT[Trp(7-Me)]K(Ac)[αMeC][2‑amino‑3‑(4-(2-aminoethoxy)phenyl)propanoic acid][2‑amino‑3‑(6-hydroxynaphthalen-2-yl)propanoic acid][Thp]K(Ac)N[3Pal][Sar] (ends and bridges not checked) [SEQ ID NO: 5] | < 10 | < 0.01
